Reference: patent US20220275088A1 (Dana-Farber, published 2022)

Tests used:
[1] = biological target: human PD-1 on cells (transfected Expi293 cells, PHA-cultured T cells, cells of the Promega PD1-PDL1 bioassay, … (human, UniProt Q15116 25-288)); experiment: cell-based or functional assay
[2] = biological target: T1, mouse PD-1 on transiently transfected Expi293 cells (mouse, UniProt Q02242 25-288); experiment: flow cytometry on transiently transfected Expi293 cells, anti human Fc-APC
T1 construct: whole, on cells; also called mPD-1
T1 sequence (looked up): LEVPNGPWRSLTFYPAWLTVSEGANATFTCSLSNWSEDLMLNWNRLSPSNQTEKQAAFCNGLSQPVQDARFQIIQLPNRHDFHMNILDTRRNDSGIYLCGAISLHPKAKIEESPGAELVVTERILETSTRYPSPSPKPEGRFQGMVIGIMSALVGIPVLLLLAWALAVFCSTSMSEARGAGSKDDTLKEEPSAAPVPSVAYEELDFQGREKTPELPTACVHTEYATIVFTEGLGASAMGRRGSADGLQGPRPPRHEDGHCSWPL
Protocol: 3E5 transiently transfected Expi293 cells were suspended in 100 ul MACS buffer and added to each well. 50 ul of each antibody dilution were then mixed with the cells and the plate was incubated at 4° C. for 30 min. Following incubation, the plate was washed 2× with MACS buffer and then incubated with 1 ul/well anti human Fc-APC (Biolegend #409306). The plate was incubated for 25 min at 4° C. and then washed 3× before running the samples.

Sequence of human PD-1 on cells (transfected Expi293 cells, PHA-cultured T cells, cells of the Promega PD1-PDL1 bioassay, … (Q15116 25-288): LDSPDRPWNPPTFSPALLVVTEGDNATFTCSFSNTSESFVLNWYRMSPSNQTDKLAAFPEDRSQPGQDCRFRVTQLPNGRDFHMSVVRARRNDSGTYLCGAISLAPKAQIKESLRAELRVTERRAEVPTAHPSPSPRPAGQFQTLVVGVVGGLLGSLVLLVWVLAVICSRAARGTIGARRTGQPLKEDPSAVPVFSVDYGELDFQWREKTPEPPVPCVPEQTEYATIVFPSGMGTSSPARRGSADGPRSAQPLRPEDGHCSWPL

Row | Binder | fold induction (RLU stimulated/RLU unstimulated), Promega PD1-PDL1 bioassay [1] | binding result [2]
1 | P4-B3 IgG1 wild type monomer (antibody, V domains shown) VH: QVQLVQSGGGLVQPGRSLRLSCAASGFTFDDYAMHWVRQAPGKGLEWVSGISWNSGSIGYADSVKGRFTVSRDNAKNSLYLQMNSLRAEDTAVYYCASDYGDKYYYYGMDVWGKGTTVTVSS VL: QPGLTQPPSASGTPGQRVTISCSGSSSNIGSNTVNWYQQFPGKAPKLLIFNDNQRPSGVPDRFSASKSGTSASLAISGLQSEDEADYYCAAWDGGLNGRGVFGGGTKLTVLG | ~0.5 fold of the signal of pembro and nivo | 
2 | P4-B3 (Example 8, format not stated) (antibody, V domains shown, Detected with anti human Fc-APC, so it carries a human Fc) VH: QVQLVQSGGGLVQPGRSLRLSCAASGFTFDDYAMHWVRQAPGKGLEWVSGISWNSGSIGYADSVKGRFTVSRDNAKNSLYLQMNSLRAEDTAVYYCASDYGDKYYYYGMDVWGKGTTVTVSS VL: QPGLTQPPSASGTPGQRVTISCSGSSSNIGSNTVNWYQQFPGKAPKLLIFNDNQRPSGVPDRFSASKSGTSASLAISGLQSEDEADYYCAAWDGGLNGRGVFGGGTKLTVL |  | binds
